From patent US20200199241A1 (Chugai, published 2020) come the findings set out here.

Test in all cases: SPR (Biacore), FcγR over captured antibody
On the technique in general: SPR reads the build-up and loss of mass on a sensor chip optically.

One assay concerns the target T1, FcγRIIb (human, UniProt P31994 43-217, limits assumed).
T1 construct: also called FcgRIIb; FcγIIB
T1 sequence: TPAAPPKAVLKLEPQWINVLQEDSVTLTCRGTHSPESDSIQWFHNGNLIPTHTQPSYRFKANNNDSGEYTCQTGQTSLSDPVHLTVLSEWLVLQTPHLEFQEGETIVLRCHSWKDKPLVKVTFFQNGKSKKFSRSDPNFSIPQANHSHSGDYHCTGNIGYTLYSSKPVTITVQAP

Another assay deals with T2, FcγRIIa type H (human, UniProt P12318 36-217).
T2 construct: also called FcγRIIaH; FcγRIIH
T2 sequence: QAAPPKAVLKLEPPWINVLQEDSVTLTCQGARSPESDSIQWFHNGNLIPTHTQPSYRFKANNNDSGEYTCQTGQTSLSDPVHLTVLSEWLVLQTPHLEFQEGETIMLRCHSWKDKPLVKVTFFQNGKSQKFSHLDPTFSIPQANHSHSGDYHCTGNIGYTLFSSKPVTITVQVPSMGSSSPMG

The target in the next assay is T3, FcγRIIa type R (human, UniProt P12318 36-217).
T3 construct: also called FcγRIIaR; FcgRIIaR
T3 chain: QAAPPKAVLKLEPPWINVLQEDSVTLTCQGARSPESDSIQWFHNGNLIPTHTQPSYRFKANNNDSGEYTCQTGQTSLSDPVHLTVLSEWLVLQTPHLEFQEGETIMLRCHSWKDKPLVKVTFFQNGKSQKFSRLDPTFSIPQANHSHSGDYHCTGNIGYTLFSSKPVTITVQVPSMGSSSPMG

The target of the next assay is T4, FcγRIa (human, UniProt P12314 16-292, limits assumed).
T4 construct: also called FcgRIa; CD64

A further assay concerns the target T5, FcγRIIIa type V (human, UniProt P08637 17-208, limits assumed).
T5 construct: also called FcγRIIIaV; FcgRIIIaV

T4 sequence (P12314 16-292 limits assumed): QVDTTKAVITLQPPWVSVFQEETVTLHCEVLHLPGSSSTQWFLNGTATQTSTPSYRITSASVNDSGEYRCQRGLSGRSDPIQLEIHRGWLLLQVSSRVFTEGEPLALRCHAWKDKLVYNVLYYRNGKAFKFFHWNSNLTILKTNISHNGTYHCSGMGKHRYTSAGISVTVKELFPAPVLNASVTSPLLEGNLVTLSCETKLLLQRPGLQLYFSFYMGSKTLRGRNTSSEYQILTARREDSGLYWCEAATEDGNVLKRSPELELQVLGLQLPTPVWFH
T5 sequence (P08637 other isoform, or with tags, fused parts or gaps limits assumed): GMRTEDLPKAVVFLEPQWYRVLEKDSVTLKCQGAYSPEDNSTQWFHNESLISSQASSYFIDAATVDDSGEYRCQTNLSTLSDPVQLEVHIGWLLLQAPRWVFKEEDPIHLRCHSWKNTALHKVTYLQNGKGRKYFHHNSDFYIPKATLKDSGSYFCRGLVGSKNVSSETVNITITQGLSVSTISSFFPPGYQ

B1: IL6R-BP106/IL6R-L (antibody, human IgG1)
heavy: QVQLQESGPGLVKPSETLSLTCAVSGHSISHDHAWSWVRQPPGEGLEWIGFISYSGITNYNPSLQGRVTISRDNSKNTLYLQMNSLRAEDTAVYYCARSLARTTAMDYWGEGTLVTVSSASTKGPSVFPLAPSSKSTSGGTAALGCLVKDYFPEPVTVSWNSGALTSGVHTFPAVLQSSGLYSLSSVVTVPSSSLGTQTYICNVNHKPSNTKVDKKVEPKSCDKTHTCPPCPAPELLGGDSVFLFPPKPKDTLMISRTPEVTCVVVDVSDEDPEVKFNWYVDGVEVHNAKTKPREEQYNSTYRVVSVLTVLHQDWLNGKEYKCKVSNKALPAPIEKTISKAKGQPREPQVYTLPPSRDELTKNQVSLTCLVKGFYPSDIAVEWESNGQPENNYKTTPPVLDSDGSFFLYSKLTVDKSRWQQGNVFSCSVMHEALHNHYTQESLSLSP
light: DIQMTQSPSSLSASVGDRVTITCRASQDISSYLNWYQQKPGKAPKLLIYYTSRLHSGVPSRFSGSGSGTDFTFTISSLQPEDIATYYCQQGNTLPYTFGQGTKVEIK
notes: IgG1; Fc variant of IL6R-B3; copies: 2 + 2
With B1, the dissociation constant (Kd) (as a rule, the free concentration of one partner at which half of the binding sites on the other are occupied at equilibrium, for simple one-to-one binding) with FcγRIIb is 0.93 µM; in the assay with FcγRIIa type H, 36 µM; in the assay with FcγRIIa type R, 11 µM; with FcγRIa, 0.004 µM; with FcγRIIIa type V, 55 µM.

B2: IL6R-BP107/IL6R-L (antibody, human IgG1)
heavy: QVQLQESGPGLVKPSETLSLTCAVSGHSISHDHAWSWVRQPPGEGLEWIGFISYSGITNYNPSLQGRVTISRDNSKNTLYLQMNSLRAEDTAVYYCARSLARTTAMDYWGEGTLVTVSSASTKGPSVFPLAPSSKSTSGGTAALGCLVKDYFPEPVTVSWNSGALTSGVHTFPAVLQSSGLYSLSSVVTVPSSSLGTQTYICNVNHKPSNTKVDKKVEPKSCDKTHTCPPCPAPELLGGDSVFLFPPKPKDTLMISRTPEVTCVVVDVSEEDPEVKFNWYVDGVEVHNAKTKPREEQYNSTYRVVSVLTVLHQDWLNGKEYKCKVSNKALPAPIEKTISKAKGQPREPQVYTLPPSRDELTKNQVSLTCLVKGFYPSDIAVEWESNGQPENNYKTTPPVLDSDGSFFLYSKLTVDKSRWQQGNVFSCSVMHEALHNHYTQESLSLSP
light: DIQMTQSPSSLSASVGDRVTITCRASQDISSYLNWYQQKPGKAPKLLIYYTSRLHSGVPSRFSGSGSGTDFTFTISSLQPEDIATYYCQQGNTLPYTFGQGTKVEIK
notes: as for B1
In the case of B2, the Kd with FcγRIIb was 0.93 µM; with FcγRIIa type H, 52 µM; with FcγRIIa type R, 12 µM; in the assay with FcγRIa, 0.0015 µM; with FcγRIIIa type V it was 63 µM.

B3: IL6R-BP112/IL6R-L (antibody, human IgG1)
heavy: QVQLQESGPGLVKPSETLSLTCAVSGHSISHDHAWSWVRQPPGEGLEWIGFISYSGITNYNPSLQGRVTISRDNSKNTLYLQMNSLRAEDTAVYYCARSLARTTAMDYWGEGTLVTVSSASTKGPSVFPLAPSSKSTSGGTAALGCLVKDYFPEPVTVSWNSGALTSGVHTFPAVLQSSGLYSLSSVVTVPSSSLGTQTYICNVNHKPSNTKVDKKVEPKSCDKTHTCPPCPAPELLGGDSVFLFPPKPKDTLMISRTPEVTCVVVDVSHEDGEVKFNWYVDGVEVHNAKTKPREEQYNSTYRVVSVLTVLHQDWLNGKEYKCKVSNKALPAPIEKTISKAKGQPREPQVYTLPPSRDELTKNQVSLTCLVKGFYPSDIAVEWESNGQPENNYKTTPPVLDSDGSFFLYSKLTVDKSRWQQGNVFSCSVMHEALHNHYTQESLSLSP
light: DIQMTQSPSSLSASVGDRVTITCRASQDISSYLNWYQQKPGKAPKLLIYYTSRLHSGVPSRFSGSGSGTDFTFTISSLQPEDIATYYCQQGNTLPYTFGQGTKVEIK
notes: as for B1
B3: the equilibrium dissociation constant (Kd) stood at 0.32 µM in the assay with FcγRIIb; 35 µM with FcγRIIa type H; 3.5 µM with FcγRIIa type R; 0.0065 µM with FcγRIa; 69 µM with FcγRIIIa type V.

B4: IL6R-BP126/IL6R-L (antibody, human IgG1)
heavy: QVQLQESGPGLVKPSETLSLTCAVSGHSISHDHAWSWVRQPPGEGLEWIGFISYSGITNYNPSLQGRVTISRDNSKNTLYLQMNSLRAEDTAVYYCARSLARTTAMDYWGEGTLVTVSSASTKGPSVFPLAPSSKSTSGGTAALGCLVKDYFPEPVTVSWNSGALTSGVHTFPAVLQSSGLYSLSSVVTVPSSSLGTQTYICNVNHKPSNTKVDKKVEPKSCDKTHTCPPCPAPELLGGDSVFLFPPKPKDTLMISRTPEVTCVVVDVSHEDPEVKFNWYVDGVEVHNAKTKPREEQYNSTYRVVSVLTVLHQDWLNGKEYKCKVSNLALPAPIEKTISKAKGQPREPQVYTLPPSRDELTKNQVSLTCLVKGFYPSDIAVEWESNGQPENNYKTTPPVLDSDGSFFLYSKLTVDKSRWQQGNVFSCSVMHEALHNHYTQESLSLSP
light: DIQMTQSPSSLSASVGDRVTITCRASQDISSYLNWYQQKPGKAPKLLIYYTSRLHSGVPSRFSGSGSGTDFTFTISSLQPEDIATYYCQQGNTLPYTFGQGTKVEIK
notes: as for B1
Regarding B4, the dissociation constant Kd with FcγRIIb came out at 1.4 µM; with FcγRIIa type H, 45 µM; in the assay with FcγRIIa type R it was 11 µM; with FcγRIa it was 0.0074 µM; with FcγRIIIa type V it was 56 µM.

B5: IL6R-BP911/IL6R-L (antibody, human IgG1)
heavy: QVQLQESGPGLVKPSETLSLTCAVSGHSISHDHAWSWVRQPPGEGLEWIGFISYSGITNYNPSLQGRVTISRDNSKNTLYLQMNSLRAEDTAVYYCARSLARTTAMDYWGEGTLVTVSSASTKGPSVFPLAPSSKSTSGGTAALGCLVKDYFPEPVTVSWNSGALTSGVHTFPAVLQSSGLYSLSSVVTVPSSSLGTQTYICNVNHKPSNTKVDKKVEPKSCDKTHTCPPCPAPELLGGDSVFLFPPKPKDTLMISRTPEVTCVVVDVSHEDPEVKFNWYVDGVEVHNAKTKPREEQYNSTYRVVSVLTVLHQDWLNGKEYKCKVSNKALPKPIEKTISKAKGQPREPQVYTLPPSRDELTKNQVSLTCLVKGFYPSDIAVEWESNGQPENNYKTTPPVLDSDGSFFLYSKLTVDKSRWQQGNVFSCSVMHEALHNHYTQESLSLSP
light: DIQMTQSPSSLSASVGDRVTITCRASQDISSYLNWYQQKPGKAPKLLIYYTSRLHSGVPSRFSGSGSGTDFTFTISSLQPEDIATYYCQQGNTLPYTFGQGTKVEIK
notes: as for B1
Take B5: the equilibrium dissociation constant (Kd) with FcγRIIb came to 0.89 µM; with FcγRIIa type H it was 37 µM; with FcγRIIa type R it was 16 µM; with FcγRIa, 0.049 µM; with FcγRIIIa type V, 58 µM.

B6: IL6R-BP120/IL6R-L (antibody, human IgG1)
heavy: QVQLQESGPGLVKPSETLSLTCAVSGHSISHDHAWSWVRQPPGEGLEWIGFISYSGITNYNPSLQGRVTISRDNSKNTLYLQMNSLRAEDTAVYYCARSLARTTAMDYWGEGTLVTVSSASTKGPSVFPLAPSSKSTSGGTAALGCLVKDYFPEPVTVSWNSGALTSGVHTFPAVLQSSGLYSLSSVVTVPSSSLGTQTYICNVNHKPSNTKVDKKVEPKSCDKTHTCPPCPAPELLGGDSVFLFPPKPKDTLMISRTPEVTCVVVDVSHEDPEVKFNWYVDGVEVHNAKTKPREEQYNSTYRVVSVLTVLHQDWLNGKEYKCKVSNEALPAPIEKTISKAKGQPREPQVYTLPPSRDELTKNQVSLTCLVKGFYPSDIAVEWESNGQPENNYKTTPPVLDSDGSFFLYSKLTVDKSRWQQGNVFSCSVMHEALHNHYTQESLSLSP
light: DIQMTQSPSSLSASVGDRVTITCRASQDISSYLNWYQQKPGKAPKLLIYYTSRLHSGVPSRFSGSGSGTDFTFTISSLQPEDIATYYCQQGNTLPYTFGQGTKVEIK
notes: as for B1
On to B6, for which the Kd is 1 µM in the assay with FcγRIIb; 65 µM in the assay with FcγRIIa type H; 9.6 µM in the assay with FcγRIIa type R; 0.0066 µM with FcγRIa; 79 µM with FcγRIIIa type V.

B7: IL6R-BP117/IL6R-L (antibody, human IgG1)
heavy: QVQLQESGPGLVKPSETLSLTCAVSGHSISHDHAWSWVRQPPGEGLEWIGFISYSGITNYNPSLQGRVTISRDNSKNTLYLQMNSLRAEDTAVYYCARSLARTTAMDYWGEGTLVTVSSASTKGPSVFPLAPSSKSTSGGTAALGCLVKDYFPEPVTVSWNSGALTSGVHTFPAVLQSSGLYSLSSVVTVPSSSLGTQTYICNVNHKPSNTKVDKKVEPKSCDKTHTCPPCPAPELLGGDSVFLFPPKPKDTLMISRTPEVTCVVVDVSHEDPEVKFNWYVDGVEVHNAKTKPREEQYNSTYRVVSVLTVLHQDWLNGKEYKCKVSNDALPAPIEKTISKAKGQPREPQVYTLPPSRDELTKNQVSLTCLVKGFYPSDIAVEWESNGQPENNYKTTPPVLDSDGSFFLYSKLTVDKSRWQQGNVFSCSVMHEALHNHYTQESLSLSP
light: DIQMTQSPSSLSASVGDRVTITCRASQDISSYLNWYQQKPGKAPKLLIYYTSRLHSGVPSRFSGSGSGTDFTFTISSLQPEDIATYYCQQGNTLPYTFGQGTKVEIK
notes: as for B1
With B7, the Kd with FcγRIIb turned out to be 0.8 µM; with FcγRIIa type H, 41 µM; in the assay with FcγRIIa type R it was 9.2 µM; with FcγRIa it was 0.0041 µM; with FcγRIIIa type V, 67 µM.
